The data set in a line: yeast display, Sf9 membrane polyspecificity reagent, FACS + sequencing; frameworks hold sequencing errors. Summed up: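 Nanobodies came from a synthetic yeast display library in Saccharomyces cerevisiae BJ5465, induced with galactose for 36–48 hours and stained for 1 hour at 4 °C with 10% biotinylated, detergent-solubilized Sf9 membrane reagent. Cells were enriched on streptavidin microbeads and then FACS-sorted, with low and high (top ~1%) gates set on anti-HA fluorescence for expression and streptavidin fluorescence for reagent binding. Each polyreactivity label reflects the gate a clone came from. Genes were amplified by colony PCR, sequenced by MiSeq 2 × 250 and filtered by CDR length.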
In the case of “QEQLQESRGGLVQAGGSLRMTCAASGYNYLAHTIGWYRQAPGKELEFVASIALGSSTYYTDSVKGSFTISRDNAKTTVYLQKNSQKPEDTAVYYCAARVGASYAHDYWGQGTQVTVSS”, the “polyreactivity (PSR sort gate)” value is reported as “low polyreactivity”. With “QEQLVESGGGLVQAGGSLRLSCAASGFIFAPYAMGWYSQAPGKDRDLVAAISSSGGSTYYADSVKGRFTISRDNAKNTVYLQMNSLKPEDTAVFYCAARGNFGANPGRKHGFDYWGQGTQVTVSS”, the “polyreactivity (PSR sort gate)” value is listed as “low polyreactivity”. With “QEQLVQSAGGLVQAGGSLPLSCAASGSIIISNAMGWYRQAPGKERELVAAISRSGARTYYADSVKGRFTISRDNAKNTVYLQMNSLKPEDTAVYSCAVDGYSPYKYDYWGQGTLVTVSS”, the “polyreactivity (PSR sort gate)” value is “high polyreactivity”. With “QFHLVESGGGLVQAGGSLRLSCAASGSTFWFNVMGWYRQAPGKEREFVAAISSIGGSTYYADSVKGRFTISRDNAKNTVYLQMNSMKPEDTAVYYCAVEVVRVYRYDYWGQGTQVTVTS”, the “polyreactivity (PSR sort gate)” value is reported as “low polyreactivity”. As for “QFHLVESGRDFVQAAGSLLLSCAASASIFRYYTMGWYRQAPGKETELVATITDRGTSTYDADSVKGRFTLSRESV”, the entry is “high polyreactivity”; as for “QFQHVESGGGLDQARGRLRLSCAASGYTFAKYTMGSYRQAPGKERELVAAISRGGSTTYADSVKGRFTISRDNAKNTVYLQMNSLKPEDTAVYDCAASGTKREDGYSLGYPRAGDYWGQGTQVTVSS”, “low polyreactivity”; as for “QFQHVESGGGLVQARGSRRLSCAASGRTLYRNAMGWYRPARGKERELVAAITSGGHTKYADSVKGRFTISRDNAKNTVYLQMNSLKPVDTAVYYCNARYIRYSVGFLYTRYDYCGQGTQVTVSS”, “high polyreactivity”. As for “QFQIVESGGGLVQAGGSLRLSCAASGSTFRTNAMGWYRQAPGKERELVARIRYSVGSTYYADSVKGRFTISRDNAKNTVYLQMNSLKPEDTAVYYCAAENQRVGTFREHDSWGQGTQVTVSS”, the entry is “low polyreactivity”. As for “QFQLEESGGGLVQAGGSLRLSCDASGIIINYYAMGWYRQAPGKERELVAAIRISDTTYYADSVKGRFTISRDNAKNTVYLQMNSLKPEDTAVYYCNTLYYYYYGEVYVRDYDYWGQGTHVTVSS”, the entry is “low polyreactivity”; as for “QFQLLESGGGLVHAGGSLLLSCAASGSTFVRYAMGWYRQAPAKERELVASISSSGSTYYADSVKGRFTISRDNAKNSDYLQMNSLKPEDTSVYYCAIQYGGRYGYWGQGTQVTVSS”, “low polyreactivity”.

As for “QFQLLESGGGLVQAGGSLRLSCAASGSIFRSNTMGWSRQAPGKAREFVAAISRRGSRTYADSVKGRFTISRDNAKNTVYLQMNSRKPEDTAVYYCAAERGYQAHPGQGDYWGQGTQVTVSA”, the “polyreactivity (PSR sort gate)” value is given as “high polyreactivity”. Turning to “QFQLLESGGGVVHAAGSLRLSCAASGLIFPIYAMGWYRQAPGKERELVAVISSSGGSTNYADSVKGRFTISRDNAKNTVYLQMNSLKPEDTAVYYCAARYLQGRYDYWGQGTQVTVSS”, the “polyreactivity (PSR sort gate)” value is listed as “high polyreactivity”. For the sequence “QFQLVDSGGGLVQAGGSLRLSCAASGLIFFYYAMGWYRQAPGKERELVAAIRTNYADSVKGRFTISRDNAKNTVYLQMNSLKPEDTAVYYCAAESSQTPTSAFDYWGQGTQVTVSS”, the “polyreactivity (PSR sort gate)” value is “low polyreactivity”. As for “QFQLVDSGGGLVQAGGSLRLSCAPSGRIFQIYAMGWYRQAPGKERELVAAISGSTSYADSVKGRFTISRDNAKNTVYLQMISLKPEDTAVYYCAARALLPYGEYWGQGSQVTVSS”, the entry is “low polyreactivity”; as for “QFQLVESCRGLVQAGGSLRLSCAASGFTFRANGMGWYRQAPGKERELVATITSGGTTNYADSVKGRFTISRDNAKNTVYLQMNSLKREDTAVYYCAKRFGPAYFRLYDYWGQGTQVTVSS”, “low polyreactivity”.

For the sequence “QFQLVESGGCLVQAGGSLRLSCAASGFTFGYNAMGWYRQAPGKERELVAVITQSGGRTYYADSVKGRFTISRDNAKYTVYVQMNSLKPEDTAVYYCADRYRLPPYYYWGQGSQVTVSS”, the “polyreactivity (PSR sort gate)” value was “high polyreactivity”. For the sequence “QFQLVESGGGFVQAGGSLRLSCAASGRIFKTYMGWYRQAPGKESELVAGITRGGGSTYYADSVKGRFTISRDNAKNTVYLQMNSLKPEDTAVYYCAADAWSSYLDRPFDYWGQGTQVTVSS”, the “polyreactivity (PSR sort gate)” value is on record as “high polyreactivity”.

As to “QFQLVESGGGFVQAGGSLRLSCAASGSIFLYNDMGWYRQAPGKERELVPAITSDGSTNYADSVKGRFTISRDNAKNTFYLQMNSLKPEDTAVYYCAADALWFYLNWYYGGTAYGYWGQGTQVTVSS”, the “polyreactivity (PSR sort gate)” value was “low polyreactivity”. On to “QFQLVESGGGIVQAGGSHRVICAASASTFARNAMGWYRQATGKESEFVATISSSGGRTYYADSVKGRFTISRDNAKNTVYLQMNSLKPEDTAVYYCAADYHIVWYEEYSWGQGTQVTVSS”, for which the “polyreactivity (PSR sort gate)” value is given as “high polyreactivity”.

For “QFQLVESGGGLDQAGGSLRLSCAASGSTSRKYTMGWYRQAPGTDRELVATISWSGGSTNYADSVKGRFTISRDNAKNTVYLQMNSLKPEDTAVYYCNAYVSPRYRGSRYYYWGQGTQVTVSS”, the “polyreactivity (PSR sort gate)” value is “high polyreactivity”. As to “QFQLVESGGGLFQAGGSLRLSCAAYGRISLRNGMGWYRQAPGKERELVAAISRGGSTYYADSVKGRFTISRDNAKNTVYLQMNSLKPEDTAVYYCNADIRPIYGDDDYWGQSTQVTVSS”, the “polyreactivity (PSR sort gate)” value is “low polyreactivity”.

As to “QFQLVESGGGLVQAGGSHRLSCAASGFIFYYYAMGSYRQAPGKERELVAVLTESGSSTYYADSVKGRFTFSRDNAKNTVYLQMNSLKPVDTAVYYCNADFWPYTGKYDYWGQGTQVTVSS”, the “polyreactivity (PSR sort gate)” value is listed as “low polyreactivity”. Take “QFQLVESGGGLVQAGGSLLLSCAASGTFGVYAMGWYRQAPGKERELVAVITDSGGTNYADSVKGRFTISRDNAKNTVFLQMNSLKPEDTAVYYCNTDAGDYYGENYWGQGTQVTVSS”: the “polyreactivity (PSR sort gate)” value was “low polyreactivity”. Consider “QFQLVESGGGLVQAGGSLRISCAASGITLRRNAMGWYRQAPGKEREWVAAISWSGGRTYYADSVKGRFTISRDNAKNTVYLQMNSLKPEDTAVYYCAARGYPLTAFDYWGQGTQVTVSS”, for which the “polyreactivity (PSR sort gate)” value was “high polyreactivity”. As for “QFQLVESGGGLVQAGGSLRISCAASGRIFYRYAMGWYRPAPGKERELVASIRFSVGSTYYADSVKGRFTISRDNAKNTVYLQMNSLKPEDTAVYYCAADYTKYYRRYYYWGQGTQVTVSS”, the entry is “high polyreactivity”; as for “QFQLVESGGGLVQAGGSLRLSCAASAGYALGGYRQAPGKERELVAVINYSGGSTYYADSVKGRFTISRDNAKNTVYLQMNSLKPEDTAVYYCAAVYRRRYYWGQGTQVTVSS”, “high polyreactivity”.

As for “QFQLVESGGGLVQAGGSLRLSCAASGFIFFNYAMGWYRQAPGKERELVASINWSTGSTYADSVKGRFTISRDNAKNTVYLQMNSLKPEDSAVYYCNTDHRRVAIPGGYWGQGTQVTVSS”, the “polyreactivity (PSR sort gate)” value was “low polyreactivity”.

For “QFQLVESGGGLVQAGGSLRLSCAASGFTFAYYAMGWYRQAPGKERELVAAITYSGGSTYYADSVKGRFTISRDNAKNTVYLQMNSLKPEDTAVYDCAAYPSRRRRGDEDDYWGQGTQVTVSS”, the “polyreactivity (PSR sort gate)” value was “high polyreactivity”. Take “QFQLVESGGGLVQAGGSLRLSCAASGFTFEANAMGWYRKAPGKERELVASITRSDGSTHYADSVKGRFTISRDNAKNTVYLLMNRLKPEDTAVYYCAAVPESLTPKKGYGYWGKGTQVTVSS”: the “polyreactivity (PSR sort gate)” value was “low polyreactivity”.

On to “QFQLVESGGGLVQAGGSLRLSCAASGFTFRKYAMGWYRQAPGKERELVAAIRSTGRSNYADSVKGRFTISRDNAKNTVYFQMNSLKPVDTAVYYFNVDLTYYYYEVDYWGQGTQVTVSS”, for which the “polyreactivity (PSR sort gate)” value is “high polyreactivity”.

The record behind these values is the nanobody polyreactivity screen of Harvey et al. (2022).
